The text below walks through data of patent publication US20130315910A1 (Xencor, published 2013).

Residue numbers refer to the chain shown, from its start. Names may count otherwise.

Assay [1] has as its target T1, human FcγRIIIa (158V), His- and GST-tagged (human, UniProt P08637 17-208).
T1 construct: also called V158 FcγRIIIa; VIIIa; not shown: 6xHis and GST tags of the pTT5 vector
Briefly: SPR. (In general: In SPR one partner is held on a chip, and binding of the other changes the refractive index at the surface.)

The target in assay [2] is T2, human FcγRIIb receptor protein (R&D Systems) (human, UniProt P31994 46-217).
T2 construct: Bought protein injected over captured antibody in Biacore; also called CD32b
T2 sequence (looked up): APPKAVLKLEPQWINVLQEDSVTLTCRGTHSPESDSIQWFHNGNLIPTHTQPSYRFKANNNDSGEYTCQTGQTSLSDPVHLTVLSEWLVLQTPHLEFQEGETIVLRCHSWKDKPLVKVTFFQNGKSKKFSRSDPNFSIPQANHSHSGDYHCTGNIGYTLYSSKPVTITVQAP
Description: SPR.

For assay [3], the target named is T3, human FcγRI receptor protein (R&D Systems) (human, UniProt P12314 16-288).
T3 construct: also called soluble FcγRI; solFcγRI
Description: SPR.

The target of assay [4] is T4, human FcγRIIIa (158F), His- and GST-tagged (human, UniProt P08637 17-208).
T4 construct: also called F158 FcγRIIIa; not shown: 6xHis and GST tags of the pTT5 vector
Briefly: SPR.

Assay [5] has as its target T5, human FcγRIIa (131R), His- and GST-tagged (human, UniProt P12318 34-217).
T5 construct: Expressed in HEK293T cells, purified by nickel chromatography; also called R131 FcγRIIa; not shown: 6xHis and GST tags of the pTT5 vector
T5 sequence (looked up): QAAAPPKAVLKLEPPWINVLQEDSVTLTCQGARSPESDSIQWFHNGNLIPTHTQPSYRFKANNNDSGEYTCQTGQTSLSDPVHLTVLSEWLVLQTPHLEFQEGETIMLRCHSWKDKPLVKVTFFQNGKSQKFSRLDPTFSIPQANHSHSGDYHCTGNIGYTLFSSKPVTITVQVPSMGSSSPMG
Briefly: SPR.

Assay [6] addresses T6, human FcγRIIa (131H), His- and GST-tagged (human, UniProt P12318 34-217).
T6 construct: also called H131 FcγRIIa; HIIa; not shown: 6xHis and GST tags of the pTT5 vector
T6 sequence (looked up): T5 sequence (looked up) with R134H
Briefly: SPR.

The target in assay [7] is T7, mFcγRIV.
T7 construct: also called mouse FcγRIV; not shown: C-terminal His and GST tags (named only on our card)
T7 chain: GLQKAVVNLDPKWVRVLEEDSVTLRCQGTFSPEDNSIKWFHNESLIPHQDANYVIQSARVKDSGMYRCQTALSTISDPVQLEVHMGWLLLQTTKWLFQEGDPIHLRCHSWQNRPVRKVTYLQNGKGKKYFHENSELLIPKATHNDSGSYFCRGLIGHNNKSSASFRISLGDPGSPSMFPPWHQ
Description: SPR, off-rate.

The target in assay [8] is T8, cynoFcγRIIb (Macaca fascicularis, UniProt A0A140HDP4).
T8 construct: extracellular region, C-terminal His- and GST-tag; also called cynomolgus monkey FcγRIIb
T8 sequence (receptor extracellular region): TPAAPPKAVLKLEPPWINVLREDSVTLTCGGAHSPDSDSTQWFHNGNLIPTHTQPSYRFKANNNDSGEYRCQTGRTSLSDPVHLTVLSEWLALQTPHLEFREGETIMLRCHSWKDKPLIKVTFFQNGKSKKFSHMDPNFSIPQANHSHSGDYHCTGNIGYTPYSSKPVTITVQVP
Description: SPR, off-rate.

For assay [9], the target named is T9, cynoFcγRIIIa (Macaca fascicularis, UniProt Q8SPW2).
T9 construct: extracellular region, C-terminal His- and GST-tag; also called cynomolgus monkey FcγRIIIa
Description: SPR, off-rate.

For assay [10], the target named is T10, mFcγRIIb (Mus musculus, UniProt P08101).
T10 construct: extracellular region, C-terminal His- and GST-tag; also called mouse FcγRII
T10 sequence (receptor extracellular region, looked up): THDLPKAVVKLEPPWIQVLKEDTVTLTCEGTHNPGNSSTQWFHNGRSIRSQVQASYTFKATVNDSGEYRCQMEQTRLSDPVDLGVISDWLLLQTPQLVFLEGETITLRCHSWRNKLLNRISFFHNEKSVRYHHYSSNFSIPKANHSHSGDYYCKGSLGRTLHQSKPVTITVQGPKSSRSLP
Description: SPR, off-rate.

The target of assay [11] is T7, mFcγRIV. Description: SPR.
The target in assay [12] is T8, cynoFcγRIIb. Description: SPR.
For assay [13], the target named is T9, cynoFcγRIIIa. Description: SPR.
For assay [14], the target named is T10, mFcγRIIb. Description: SPR.
The target of assay [15] is T8, cynoFcγRIIb. Description: SPR, Kd. The method, then:
Variants were screened for receptor affinity using Biacore™ technology, also referred to as Biacore herein, a surface plasmon resonance (SPR) based technology for studying biomolecular interactions in real time. SPR measurements were performed using a Biacore 3000 instrument (Biacore, Piscataway, N.J.). A protein A/G (Pierce Biotechnology) CM5 biosensor chip (Biacore) was generated using a standard primary amine coupling protocol. All measurements were performed using HBS-EP buffer (10 mM HEPES pH 7.4, 0.15 M NaCl, 3 mM EDTA, 0.005% vol/vol surfactant P20, Biacore). Antibodies at 20 nM or 50 nM in HBS-EP buffer were immobilized on the protein A/G surface and FcγRs were injected. After each cycle, the surface was regenerated by injecting glycine buffer (10 mM, pH 1.5). Data were processed by zeroing time and response before the injection of FcγR and by subtracting appropriate nonspecific signals (response of reference channel and injection of running buffer). Kinetic analyses were performed by global fitting of binding data with a 1:1 Langmuir binding model using BIAevaluation software (Biacore).
Variant antibodies were tested for their affinity to mouse or cynologous monkey FcγRs using Biacore SPR as described above. Specifically, antibodies were first immobilized on a protein A/G chip to high density, and then followed by injections of the extracellular domain of the mouse or cynologous monkey FcγR of interest. Both association and dissociation phases were tracked in real time using the Biacore technology.
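For Fold vs WT IgG1 (off-rate) in this document: fold improvement over WT IgG1 so higher means slower dissociation than WT.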

T3 sequence (P12314 16-288 limits assumed): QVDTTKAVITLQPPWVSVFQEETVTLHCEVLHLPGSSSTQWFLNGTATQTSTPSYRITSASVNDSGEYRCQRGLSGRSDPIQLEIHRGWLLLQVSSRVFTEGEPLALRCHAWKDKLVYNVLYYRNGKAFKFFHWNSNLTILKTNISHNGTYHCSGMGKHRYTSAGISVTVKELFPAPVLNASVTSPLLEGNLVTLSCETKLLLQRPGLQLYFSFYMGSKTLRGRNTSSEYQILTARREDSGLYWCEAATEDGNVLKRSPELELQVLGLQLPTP
T9 sequence (Q8SPW2 17-208): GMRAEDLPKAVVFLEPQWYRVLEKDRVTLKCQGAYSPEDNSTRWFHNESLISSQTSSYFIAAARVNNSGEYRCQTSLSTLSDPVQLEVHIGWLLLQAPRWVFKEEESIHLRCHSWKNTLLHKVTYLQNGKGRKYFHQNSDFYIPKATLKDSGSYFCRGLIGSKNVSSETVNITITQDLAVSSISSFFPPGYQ
T1 sequence (P08637 17-208 F176V): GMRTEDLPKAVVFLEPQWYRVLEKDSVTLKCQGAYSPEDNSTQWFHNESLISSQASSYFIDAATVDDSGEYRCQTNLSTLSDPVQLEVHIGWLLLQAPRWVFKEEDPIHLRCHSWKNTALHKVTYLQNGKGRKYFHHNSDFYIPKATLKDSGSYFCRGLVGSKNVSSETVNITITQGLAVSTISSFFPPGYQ
T4 sequence (P08637 17-208): as the sequence (P08637 17-208 F176V) above, with V160F counted along it

B1: G236D (antibody, human IgG1, kappa)
heavy: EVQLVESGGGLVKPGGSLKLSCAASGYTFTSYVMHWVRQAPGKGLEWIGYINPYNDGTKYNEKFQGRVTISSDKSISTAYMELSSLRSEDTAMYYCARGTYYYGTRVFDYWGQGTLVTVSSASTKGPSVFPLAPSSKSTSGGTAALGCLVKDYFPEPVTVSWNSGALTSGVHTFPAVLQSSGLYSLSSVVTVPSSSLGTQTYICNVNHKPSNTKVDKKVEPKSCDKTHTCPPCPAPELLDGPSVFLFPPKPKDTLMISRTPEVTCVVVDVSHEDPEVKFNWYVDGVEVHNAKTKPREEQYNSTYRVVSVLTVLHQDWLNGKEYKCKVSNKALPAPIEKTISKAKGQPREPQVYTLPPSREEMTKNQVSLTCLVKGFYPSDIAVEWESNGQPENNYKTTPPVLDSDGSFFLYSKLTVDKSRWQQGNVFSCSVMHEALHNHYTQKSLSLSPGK
light: DIVMTQSPATLSLSPGERATLSCRSSKSLQNVNGNTYLYWFQQKPGQSPQLLIYRMSNLNSGVPDRFSGSGSGTEFTLTISSLEPEDFAVYYCMQHLEYPITFGAGTKLEIKRTVAAPSVFIFPPSDEQLKSGTASVVCLLNNFYPREAKVQWKVDNALQSGNSQESVTEQDSKDSTYSLSSTLTLSKADYEKHKVYACEVTHQGLSSPVTKSFNRGEC
notes: HuAM4G7 anti-CD19 IgG1 (m1) with this Fc substitution, EU index; copies: 2 + 2
One may read the Kd as the concentration at which binding is half-saturated. A lower Kd goes with higher affinity. Turning to B1, the binding result in [1], in [4], in assay [7], in assay [8], in assay [9] and in [10] was “no binding” each time. In addition, the “Fold vs WT IgG1” value in assay [2] came out at 1.54 fold; in [3], 0.0211 fold; in assay [5], 0.758 fold; in assay [6] it was 0.167 fold. In addition, the Kd in [2] turned out to be 953 nM; in assay [3], 15.6 nM; in assay [5], 1130 nM; in [6], 3870 nM.

B2: S239D (antibody, human IgG1, kappa)
heavy: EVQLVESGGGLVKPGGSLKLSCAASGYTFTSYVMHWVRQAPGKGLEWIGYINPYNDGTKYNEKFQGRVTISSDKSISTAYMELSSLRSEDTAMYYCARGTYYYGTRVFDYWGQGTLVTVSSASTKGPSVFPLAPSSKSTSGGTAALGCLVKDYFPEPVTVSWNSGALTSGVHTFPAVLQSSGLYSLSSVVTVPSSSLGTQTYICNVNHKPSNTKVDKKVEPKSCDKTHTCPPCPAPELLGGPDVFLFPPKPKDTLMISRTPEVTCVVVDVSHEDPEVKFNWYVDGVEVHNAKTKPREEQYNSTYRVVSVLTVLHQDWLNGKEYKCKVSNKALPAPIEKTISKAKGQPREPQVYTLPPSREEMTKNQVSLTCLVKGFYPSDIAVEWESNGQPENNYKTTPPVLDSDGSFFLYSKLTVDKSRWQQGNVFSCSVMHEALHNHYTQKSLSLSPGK
light: B1 light
notes: as for B1
B2: the “Fold vs WT IgG1” value worked out at 8.14 fold in [1]; 3.6 fold in [2]; 3.53 fold in assay [3]; 6.32 fold in assay [4]; 3.73 fold in [5]; 1.1 fold in [6]. Besides, the Kd in [1] worked out at 23.5 nM; in assay [2], 408 nM; in assay [3], 0.0934 nM; in assay [4] it was 214 nM; in assay [5] it was 230 nM; in [6] it was 590 nM. For the same molecule, the “Fold vs WT IgG1 (Kd)” value in [11] worked out at 2.52 fold; in assay [12] it was 1.64 fold; in assay [13], 7.58 fold; in assay [14], 2.01 fold. In addition, the “Fold vs WT IgG1 (off-rate)” value in assay [11] amounted to 1.91 fold; in [12], 1.99 fold; in assay [13] it was 2.33 fold; in assay [14], 2.91 fold.

B3: A330D (antibody, human IgG1, kappa)
heavy: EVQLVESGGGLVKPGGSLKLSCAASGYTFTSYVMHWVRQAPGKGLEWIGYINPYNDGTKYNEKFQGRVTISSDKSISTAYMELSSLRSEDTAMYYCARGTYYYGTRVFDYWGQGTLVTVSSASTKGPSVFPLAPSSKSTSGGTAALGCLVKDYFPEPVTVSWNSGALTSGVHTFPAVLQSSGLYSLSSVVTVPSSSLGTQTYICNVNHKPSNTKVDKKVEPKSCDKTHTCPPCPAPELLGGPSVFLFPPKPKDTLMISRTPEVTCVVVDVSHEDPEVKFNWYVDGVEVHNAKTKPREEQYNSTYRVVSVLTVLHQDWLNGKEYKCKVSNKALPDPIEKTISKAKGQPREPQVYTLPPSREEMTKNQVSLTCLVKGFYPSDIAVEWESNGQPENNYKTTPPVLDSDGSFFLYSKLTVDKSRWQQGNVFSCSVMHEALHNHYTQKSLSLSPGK
light: B1 light
notes: as for B1
As for B3, the binding result in [15] and in [2] was “no binding” each time. Moreover, the “Fold vs WT IgG1 (Kd)” value in assay [14] came to 2.63 fold.

B4: L328E (antibody, human IgG1, kappa)
heavy: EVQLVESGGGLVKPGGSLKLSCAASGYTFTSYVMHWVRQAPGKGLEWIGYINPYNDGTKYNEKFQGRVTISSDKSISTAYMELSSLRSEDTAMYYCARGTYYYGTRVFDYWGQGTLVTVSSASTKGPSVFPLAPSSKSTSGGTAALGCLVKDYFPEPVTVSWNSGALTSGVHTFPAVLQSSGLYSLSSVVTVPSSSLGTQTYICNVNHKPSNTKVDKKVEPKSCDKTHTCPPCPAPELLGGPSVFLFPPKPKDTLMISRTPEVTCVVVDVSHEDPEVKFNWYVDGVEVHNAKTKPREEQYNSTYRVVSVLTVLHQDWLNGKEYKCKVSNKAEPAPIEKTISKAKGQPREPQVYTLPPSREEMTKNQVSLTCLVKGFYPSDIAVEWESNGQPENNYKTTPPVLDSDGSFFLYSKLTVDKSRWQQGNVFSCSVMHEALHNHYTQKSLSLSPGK
light: B1 light
notes: as for B1
As to B4, the binding result in [15] and in assay [2] was “no binding” each time. For the same molecule, the “Fold vs WT IgG1 (Kd)” value in assay [14] amounted to 0.016 fold.

B5: L234W/G236D/S239E/S267E (antibody, human IgG1, kappa)
heavy: EVQLVESGGGLVKPGGSLKLSCAASGYTFTSYVMHWVRQAPGKGLEWIGYINPYNDGTKYNEKFQGRVTISSDKSISTAYMELSSLRSEDTAMYYCARGTYYYGTRVFDYWGQGTLVTVSSASTKGPSVFPLAPSSKSTSGGTAALGCLVKDYFPEPVTVSWNSGALTSGVHTFPAVLQSSGLYSLSSVVTVPSSSLGTQTYICNVNHKPSNTKVDKKVEPKSCDKTHTCPPCPAPEWLDGPEVFLFPPKPKDTLMISRTPEVTCVVVDVEHEDPEVKFNWYVDGVEVHNAKTKPREEQYNSTYRVVSVLTVLHQDWLNGKEYKCKVSNKALPAPIEKTISKAKGQPREPQVYTLPPSREEMTKNQVSLTCLVKGFYPSDIAVEWESNGQPENNYKTTPPVLDSDGSFFLYSKLTVDKSRWQQGNVFSCSVMHEALHNHYTQKSLSLSPGK
light: B1 light
notes: HuAM4G7 anti-CD19 IgG1 (m1) with these Fc substitutions, EU index; copies: 2 + 2
Consider B5, for which the binding result in assay [15] was “no binding”. Also, in [2], the “Fold vs WT IgG1” value turned out to be 11.4 fold and the Kd worked out at 129 nM. Besides, in assay [5], the “Fold vs WT IgG1” value was 5.69 fold and binding was characterised by a dissociation constant (Kd) of 151 nM. In assay [14], the “Fold vs WT IgG1 (Kd)” value stood at 0.029 fold.

B6: A330H (antibody, human IgG1, kappa)
heavy: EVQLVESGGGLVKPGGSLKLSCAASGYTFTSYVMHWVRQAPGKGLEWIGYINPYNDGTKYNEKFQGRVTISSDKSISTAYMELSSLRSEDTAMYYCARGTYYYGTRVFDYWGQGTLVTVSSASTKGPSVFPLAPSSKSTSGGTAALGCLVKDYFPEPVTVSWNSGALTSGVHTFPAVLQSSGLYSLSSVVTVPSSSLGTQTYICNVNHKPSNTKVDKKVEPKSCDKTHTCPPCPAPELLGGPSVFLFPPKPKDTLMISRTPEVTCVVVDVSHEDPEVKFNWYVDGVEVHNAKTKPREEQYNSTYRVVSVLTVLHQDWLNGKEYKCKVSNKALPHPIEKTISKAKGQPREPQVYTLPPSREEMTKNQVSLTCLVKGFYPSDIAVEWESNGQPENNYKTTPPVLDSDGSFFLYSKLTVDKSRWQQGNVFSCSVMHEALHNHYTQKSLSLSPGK
light: B1 light
notes: as for B1
As for B6, the binding result in [15] and in assay [2] was “no binding” in each case. For the same molecule, in [14], the “Fold vs WT IgG1 (Kd)” value came to 0.013 fold.
